Data published in US20220372155A1 (LYVGEN BIOPHARMA, published 2022).

B1: Ly611 (bispecific antibody, human IgG1, kappa)
heavy: EVQLQQSGPELVKPGASVKMSCKASGYTFTSYVMHWVKQKPGQGLEWIGYINPYNDGTECTDKFKGKATLTSDKSSSTAYMELSSLTSEDSAVYYCASIYYGYDGTYFGVWGAGTSVTVSSASTKGPSVFPLAPSSKSTSGGTAALGCLVKDYFPEPVTVSWNSGALTSGVHTFPAVLQSSGLYSLSSVVTVPSSSLGTQTYICNVNHKPSNTKVDKKVEPKSCDKTHTCPPCPAPELLGPSVFLFPPKPKDTLMISRTPEVTCVVVDVSHEDPEVKFNWYVDGVEVHNAKTKPREEQYNSTYRVVSVLTVLHQDWLNGKEYKCKVSNKALPAPIEKTISKAKGQPREPQVYTLPPSREEMTKNQVSLTCLVKGFYPSDIAVEWESNGQPENNYKTTPPVLDSDGSFFLYSKLTVDKSRWQQGNVFSCSVMHEALHNHYTQKSLSLSPGGGGGSGGGGSGGGGSGGGGSQVQLVESGGGLVQPGGSLKLSCATSGFNFNDYFMNWVRQASGKGLEWVGQIRNKNYNYATYYTESLEGRVTISRDDSKNTAYLQMNSLKTEDTAVYYCTSYYYDGFADYFDYWGQGTTVTVSSGGGGSGGGGSGGGGSGGGGSDIQMTQSPSSLSASVGDRVTITCKASQNIYIYLNWYQQKPGKAPKLLIYNTNNLQTGVPSRFSGSGSGTDFTLTISSLQPEDFATYYCLQHSSRRTFGGGTKVEIK
light: QIVLSQSPAILSTSPGEKVTMTCRASSSVSYMHWYQQKPGSSPKPWIYATSNLASGVPARFSGSRSGTSYSLTISRVEAEDAATYYCQQWSSNTLTFGGGTKLELKRTVAAPSVFIFPPSDEQLKSGTASVVCLLNNFYPREAKVQWKVDNALQSGNSQESVTEQDSKDSTYSLSSTLTLSKADYEKHKVYACEVTHQGLSSPVTKSFNRGEC
notes: Ly383 HC (IgG1 mutated Fc)-TM740 scFv VH-VL + Ly383 LC
B2: Ly612 (bispecific antibody, human IgG1, kappa)
heavy: EVQLQQSGPELVKPGASVKMSCKASGYTFTSYVMHWVKQKPGQGLEWIGYINPYNDGTECTDKFKGKATLTSDKSSSTAYMELSSLTSEDSAVYYCASIYYGYDGTYFGVWGAGTSVTVSSASTKGPSVFPLAPSSKSTSGGTAALGCLVKDYFPEPVTVSWNSGALTSGVHTFPAVLQSSGLYSLSSVVTVPSSSLGTQTYICNVNHKPSNTKVDKKVEPKSCDKTHTCPPCPAPELLGPSVFLFPPKPKDTLMISRTPEVTCVVVDVSHEDPEVKFNWYVDGVEVHNAKTKPREEQYNSTYRVVSVLTVLHQDWLNGKEYKCKVSNKALPAPIEKTISKAKGQPREPQVYTLPPSREEMTKNQVSLTCLVKGFYPSDIAVEWESNGQPENNYKTTPPVLDSDGSFFLYSKLTVDKSRWQQGNVFSCSVMHEALHNHYTQKSLSLSPGGGGGSGGGGSGGGGSGGGGSDIQMTQSPSSLSASVGDRVTITCLASEDISNDLAWYQQKPGKAPKLLIYFVDRLLDGVPSRFSGSGSGTDFTLTISSLQPEDFATYYCQQSYKYPPTFGQGTKLEIKGGGGSGGGGSGGGGSGGGGSEVQLVESGGGLVQPGGSLRLSCAASGFTFTNYGLHWVRQAPGKGLEWVSSISPSGGVTYYRDSVKGRFTISRDNSKNTLYLQMNSLRAEDTAVYYCAKPFLGWGGANWIAHWGQGTLVTVSS
light: B1 light
notes: Ly383 HC (IgG1 mutated Fc)-TM559 scFv VL-VH + Ly383 LC
B3: Ly613 (bispecific antibody, human IgG1, kappa)
heavy: EVQLQQSGPELVKPGASVKMSCKASGYTFTSYVMHWVKQKPGQGLEWIGYINPYNDGTECTDKFKGKATLTSDKSSSTAYMELSSLTSEDSAVYYCASIYYGYDGTYFGVWGAGTSVTVSSASTKGPSVFPLAPSSKSTSGGTAALGCLVKDYFPEPVTVSWNSGALTSGVHTFPAVLQSSGLYSLSSVVTVPSSSLGTQTYICNVNHKPSNTKVDKKVEPKSCDKTHTCPPCPAPELLGPSVFLFPPKPKDTLMISRTPEVTCVVVDVSHEDPEVKFNWYVDGVEVHNAKTKPREEQYNSTYRVVSVLTVLHQDWLNGKEYKCKVSNKALPAPIEKTISKAKGQPREPQVYTLPPSREEMTKNQVSLTCLVKGFYPSDIAVEWESNGQPENNYKTTPPVLDSDGSFFLYSKLTVDKSRWQQGNVFSCSVMHEALHNHYTQKSLSLSPGGGGGSGGGGSGGGGSGGGGSEVQLVESGGGLVQPGGSLRLSCAASGFTFTNYGLHWVRQAPGKGLEWVSSISPSGGVTYYRDSVKGRFTISRDNSKNTLYLQMNSLRAEDTAVYYCAKPFLGWGGANWIAHWGQGTLVTVSSGGGGSGGGGSGGGGSGGGGSDIQMTQSPSSLSASVGDRVTITCLASEDISNDLAWYQQKPGKAPKLLIYFVDRLLDGVPSRFSGSGSGTDFTLTISSLQPEDFATYYCQQSYKYPPTFGQGTKLEIK
light: B1 light
notes: Ly383 HC (IgG1 mutated Fc)-TM559 scFv VH-VL + Ly383 LC

What follows are binders tested against T1, human CD40 expressed on CHO cells (human, UniProt P25942 21-277) (assay: FACS, CHO cells).
T1 construct: whole, on cells; also used for the reporter cells over-expressing human CD40; also called cellular CD40; CHO-CD40 cells
T1 sequence (P25942 21-277): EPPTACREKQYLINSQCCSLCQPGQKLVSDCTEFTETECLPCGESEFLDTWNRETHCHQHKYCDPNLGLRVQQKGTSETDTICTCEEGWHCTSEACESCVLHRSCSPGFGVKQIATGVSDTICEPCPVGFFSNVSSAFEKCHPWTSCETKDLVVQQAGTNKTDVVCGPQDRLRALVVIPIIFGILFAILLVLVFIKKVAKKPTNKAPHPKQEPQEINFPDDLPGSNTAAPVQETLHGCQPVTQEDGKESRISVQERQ

| Binder | binding result |
| --- | --- |
| B1 | binds |
| B2 | binds |
| B3 | binds |

Each binder was assayed against T2, Human CD40 ECD protein (mouse IgG2a Fc tag) (human, UniProt P25942 21-193) (assay: bridging ELISA, coated B7H3-His, soluble CD40-msFc).
T2 construct: extracellular domain; also called Human CD40-msFc; human recombinant CD40; not shown: mouse IgG2a Fc tag
Experimental: Anti-B7H3/CD40 bi-specific antibodies were analyzed by ELISA for their simultaneous binding to recombinant human B7H3 and human CD40. Briefly, Human B7H3 CD protein (His-tag) was diluted and coated onto an ELISA plate with a volume of […] by incubation at 4° C. overnight. The next day, the plate was blocked with PBST-BSA buffer, then serially diluted samples of anti-B7H3/CD40 bi-specific antibodies were pipetted into appropriate wells at 50 μL/well, and the plate was incubated for 1 h followed by washing. Human CD40-msFc antibody was added into the plate at 50 μL/well. After 1-hour incubation at room temperature, […] anti-Mouse IgG (H+L) antibody was added into the plate at 100 μL/well. The plate was incubated for 1 hour at room temperature followed by washing. TMB substrate solution was added at 100 p L/well and the color development was stopped by adding 100 uUwell Stop Solution (2N H2SO4). Absorbance at 450 nm and 620 nm was read by Tecan F200 Pro plate reader. GraphPad 7.0, “[Agonist] vs. response—Variable slope (four parameters)” was used to plot the binding data and calculate binding EC50 values.

T2 sequence (P25942 21-193): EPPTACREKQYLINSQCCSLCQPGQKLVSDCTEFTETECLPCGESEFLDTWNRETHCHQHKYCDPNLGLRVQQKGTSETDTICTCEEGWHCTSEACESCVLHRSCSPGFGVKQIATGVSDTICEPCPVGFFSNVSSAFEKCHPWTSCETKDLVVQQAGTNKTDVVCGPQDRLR

| Binder | binding result |
| --- | --- |
| B1 | binds |
| B2 | binds |
| B3 | binds |
